Measurements taken from patent publication US20250092108A1.

Target: IL-2 receptors (high-affinity IL-2Rαβγ or intermediate-affinity IL-2Rβγ) on PBMC lymphocytes (UniProt P01589)
Experiment: cell-based or functional assay

Chain of IL-2 receptors (high-affinity IL-2Rαβγ or intermediate-affinity IL-2Rβγ) on PBMC lymphocytes (P01589 22-272 limits assumed, chain 1 of 3): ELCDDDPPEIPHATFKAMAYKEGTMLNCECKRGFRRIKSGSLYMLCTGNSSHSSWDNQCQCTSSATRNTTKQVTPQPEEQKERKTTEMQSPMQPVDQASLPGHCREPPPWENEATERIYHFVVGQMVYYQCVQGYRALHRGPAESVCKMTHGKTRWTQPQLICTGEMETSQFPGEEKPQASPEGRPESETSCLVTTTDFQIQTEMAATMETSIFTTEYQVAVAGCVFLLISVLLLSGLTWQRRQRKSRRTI
Chain of IL-2 receptors (high-affinity IL-2Rαβγ or intermediate-affinity IL-2Rβγ) on PBMC lymphocytes (P14784 27-551 limits assumed, chain 2 of 3, further chain): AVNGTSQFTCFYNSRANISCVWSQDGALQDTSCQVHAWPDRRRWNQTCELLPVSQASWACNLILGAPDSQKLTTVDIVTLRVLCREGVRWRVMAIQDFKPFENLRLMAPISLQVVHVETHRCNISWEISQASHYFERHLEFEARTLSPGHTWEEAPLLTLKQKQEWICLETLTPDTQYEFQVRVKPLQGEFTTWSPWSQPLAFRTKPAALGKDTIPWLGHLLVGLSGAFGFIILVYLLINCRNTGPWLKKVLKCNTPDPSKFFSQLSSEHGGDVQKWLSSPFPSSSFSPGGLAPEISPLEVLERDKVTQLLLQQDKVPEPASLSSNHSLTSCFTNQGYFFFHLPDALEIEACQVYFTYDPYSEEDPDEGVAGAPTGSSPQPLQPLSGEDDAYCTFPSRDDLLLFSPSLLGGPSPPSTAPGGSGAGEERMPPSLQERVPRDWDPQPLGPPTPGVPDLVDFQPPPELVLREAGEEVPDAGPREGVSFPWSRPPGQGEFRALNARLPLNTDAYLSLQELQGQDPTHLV
Chain of IL-2 receptors (high-affinity IL-2Rαβγ or intermediate-affinity IL-2Rβγ) on PBMC lymphocytes (P31785 23-369 limits assumed, chain 3 of 3, further chain): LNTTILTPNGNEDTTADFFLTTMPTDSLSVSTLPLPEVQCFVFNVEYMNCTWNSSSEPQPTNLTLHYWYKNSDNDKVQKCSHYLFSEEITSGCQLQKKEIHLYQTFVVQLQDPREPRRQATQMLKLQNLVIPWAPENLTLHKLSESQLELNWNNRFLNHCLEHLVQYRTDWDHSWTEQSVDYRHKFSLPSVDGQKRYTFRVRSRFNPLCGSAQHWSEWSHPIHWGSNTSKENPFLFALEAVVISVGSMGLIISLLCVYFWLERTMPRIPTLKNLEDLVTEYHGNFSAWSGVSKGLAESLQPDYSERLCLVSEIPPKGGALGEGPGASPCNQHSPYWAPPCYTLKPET

## XENP27193, an Fc-IL-2(V91K/C125A) fusion as described in WO 2014/153111 (from UniProt P60568 21-153) (Fc fusion)
  EC50, induction of STAT5 phosphorylation (in vitro potency): 0.01 nM
